Tested on: adult hippocampus-derived neural progenitor cells
Assay: in vitro differentiation analysis of neural progenitor cells (immunocytochemistry for lineage markers)
Assay type: cell-based, rat
Description: The neural progenitor cells isolated from the hippocampus of female Fischer 344 used in this study have been characterized previously (Gage et al., 1995; Palmer et al., 1997). The whole brain-derived neural stem cells from PIO ICR mice were isolated and cultured according to the methods as described, with slight modifications. Cells were cultured as previously described (Gage et al., 1995; Ray et al., 1993). Cells between passages 10 and 20 were used for in vitro differentiation analyses. To induce differentiation, cells were plated into 4-well chamber slides at a density of 55,000-75,000 cells per well and were allowed to proliferate in N2-supplemented (Invitrogen) DMEM:F12 (Omega Scientific) medium containing 20 ng/ml FGF-2 (PeproTech, Inc.) for 24 hours. FGF-2 was then withdrawn and cells were subsequently treated with differentiation media. […] For IGF-induction experiments, cells were trypsinized, washed with 1× PBS, and plated into insulin-free N2 medium. […] In some cultures, BrdU (2.5 μM, Sigma) was added to label dividing cells, and Q-VD-OPh (2 μM, Enzyme Systems Products) was added to prevent apoptosis.
Cells were fixed with 4% paraformaldehyde, followed by immunocytochemical staining as described (Palmer et al., 1999). Labeled cells were visualized using a Nikon E800 upright microscope or a Nikon E600 inverted microscope (Nikon Inc.) and a Spot RT CCD camera (Diagnostic Instruments Inc.). 4′,6-diamidino-2-phenylindole (DAPI) was used to identify individual cells. Quantification of cell phenotypes was with StereoInvestigator (MicroBrightfield Inc.); for each marker, 500-1000 cells were sampled systematically from standardized fields at 40×magnification. For quantification of live/dead cells, images were taken of cultures live-stained with propidum iodide (1 μg/ml; Molecular Probes) and Hoescht 33342 (1 μg/ml; Sigma) at 10×magnification, and cells were counted using Image-Pro (Media Cybernetics). The following primary antibodies were used: rabbit anti-Tuj1 (1:7500;Covance), mouse anti-RIP (1:25-1:75; Hybridoma Bank); guinea pig anti-GFAP (1:500-1:2500; Advanced Immunochemical, Inc.); rabbit anti-MBP (1:500; Chemicon International Inc.), rat anti-BrdU (1:400; Accurate). Secondary antibodies were all from Jackson ImmunoResearch and used at 1:250 dilution. The detection of BrdU in cultured cells required treatment in 2 N HCL at 37° C. for 30 min (Palmer et al., 1999). All experiments were independently replicated at least 3 times.

B1: Noggin: extracellular protein that binds BMP ligands, BMP antagonist (protein, UniProt Q13253 28-232, looked up)
Noggin: QHYLHIRPAPSDNLPLVDLIEHPDPIFDPKEKDLNETLLRSLLGGHYDPGFMATSPPEDRPGGGGGAAGGAEDLAELDQLLRQRPSGAMPSEIKGLEFSEGLAQGKKQRLSKKLRRKLQMWLWSQTFCPVLYAWNDLGSRFWPRYVKVGSCFSKRSCSVPEGMVCKPSKSVHLTVLRWRCQRRGGQRCGWIPIQYPIISECKCSC
- differentiation or survival effects of Noggin alone (500 ng/ml Noggin alone, insulin-free media): did not display any enhanced differentiation or survival effects
- reversal of BMP2 inhibition of oligodendrocyte differentiation (Noggin 500 ng/ml with BMP2 50 ng/ml and IGF-I 500 ng/ml): efficiently reversed the inhibitory effects of BMP signaling
- percentage of oligodendrocytes vs IGF-I alone (Noggin 500 ng/ml with IGF-I 20-100 ng/ml): significant increase in the percentage of oligodendrocytes
- percentage of RIP+ oligodendrocytes vs IGF-I alone (Noggin 500 ng/ml with IGF-I 500-1000 ng/ml): did not result in a significant change

Reference: patent US20050148069A1, “IGF-1 instructs multipotent adult CNS neural stem cells to an oligodendroglial lineage” (priority 2003, published 2005)
